Measurements from the supplement of paper PMC12042874.
± gives the uncertainty stated by the source.

Test: amyloid nucleation score (Sup35N fusion, yeast selection) (log enrichment); library NNK3; higher = more nucleation; inactive = no reads after selection
Summary of the method: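 For the nucleation score, DiMSum gave the log enrichment of output over input reads, centred on the mode score of non-aggregating sequences. Psi-negative yeast expressing Sup35N fused to peptides of 20 random codons were induced with 100 μM copper sulfate for 24 hours and grown 7 days at 30°C on medium lacking adenine and uracil. Input and output plasmid inserts were Illumina-sequenced, and sequences with under 100 input reads were excluded.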

Substance | amyloid nucleation score
IYSVTMTRHVFFNGFQVQLV | inactive
IYSYTVFPSFGGMLCMVLVG | inactive
IYVHNYFISVVIMVYFTMLP | inactive
IYVLNLMLFVFCRNVLCDGY | inactive
IYVVRIYVSWVNILHALVYS | inactive
KACWLYLIFIFFGWVYSKTI | 0.745 ± 0.25
KALTRRIILHWK | 0.711 ± 0.28
KANRFRVVMLGVDGVCAFQS | inactive
KASVSTRFMII | inactive
KASWRMLC | inactive
KCKANPEDNVRFLRLVYGAS | inactive
KCLLV | inactive
KCTGYAGCCWWT | inactive
KDKACRNCHKGVMRVTWVK | 0.012 ± 0.87
KDLYIIIITRMYRIFKS | inactive
KDRSCNALWGLDCLYGNKGC | -0.197 ± 0.61
KDVSMLSTVTRTPRMRRVST | inactive
KEADDCVREAKFGAEFVTLR | inactive
KEGNGMSFYN | inactive
KEQDTQSIAQCNKTHRA | inactive
KFFQIIRASVF | inactive
KFFQTSLRTAIRLWKSAISC | inactive

Substance | amyloid nucleation score
KFGHSVKSINLLNATTHVWI | -0.126 ± 0.47
KFHWWDTCTDVKSRLKVDVE | inactive
KFILFRVSVKGIRRFQVGR | 1.47 ± 0.14
KFKENMYLTYSCLHKVIMRF | inactive
KFSNSASFSGFYFNNYLSSQ | 0.95 ± 0.096
KGASIYMVTLFSSSNAKM | 1.28 ± 0.093
KGEFIRPTSMVKYTDGLESG | inactive
KGMFLVMSRLCPFISWSRSQ | inactive
KGRMQVEWDFGISAYCGMML | -0.431 ± 1.1
KGSLGVPWLLVNSGLINGC | inactive
KGSTLVMLP | inactive
KGSVRYIDCIVIL | 1.77 ± 0.063
KGVFRNAFELFKYHFSHAGM | inactive
KHLGKAKSSGST | inactive
KHRYAYGRRTNCWASHYLRG | inactive
KHSVSLECRIRSAGDTVGWF | inactive
KIDLVGTLVMTIFNAQMQYE | 2.06 ± 0.083
KIICRAWYMSVGERRA | -0.449 ± 1.4
KIKSLELMYDISERNF | inactive
KISETGRCNSLCW | inactive
KKCHGMMCNTITRTINILC | inactive
KKMHNVALGFMFIVVG | inactive

Substance | amyloid nucleation score
KLASLFNYCSERKN | inactive
KLGMSPSSLYSPAR | inactive
KLQYYVALSAT | inactive
KLRTSGAILVF | inactive
KLTFNRLLKT | inactive
KLVAGFPAGCTK | inactive
KLVFTIRVF | inactive
KLYIALMDKYPGATSMFQPV | 1.18 ± 0.23
KMDLTGWTI | inactive
KMFWLVTHRLN | inactive
KMKCRVIYVLSSLIYCM | inactive
KMKIT | inactive
KMLNYM | inactive
KMRSSVYFLDYNWNKTLPCL | -0.541 ± 1.1
KNGKWRGISSYRNRRFNTGI | inactive
KNLDKLVKMYH | inactive
KNLRVLGSSLIGLTLIECHG | -0.801 ± 1.1
KNQNMMMSSQFSMYCWFRLT | inactive
KNVSEEVGLSLVPSEGKSHL | inactive
KPGIIIVFVGHG | inactive
KPISRRGWPRPKAGRNEPPR | inactive
KPLCLFQARRYRW | inactive
